The values that follow come from the RNAGym collection of RNA variant scans (doi:10.1073/pnas.2313332121).

Sequences and labels used below:
B1: TPR t1 (parent)
chain: GACCAAUCUGCCCUCAGAGCUCGAGAACAUCUUCGGAUGCAGAGGAGGCAGGCUUCGGUGGCGCGAUAGCGCCAACGUCCUCAACCUCCAAUGCAUCCCACCACAUGAUGAUGCCUGAAGAGCCUUGGUUUUUUG

The variants in this data set derive from B1. The data set is described as follows: polymerase ribozyme fitness, log enrichment relative to wild type (log ratio); higher = more active; in vitro selection for triplet polymerase activity. A digest of the protocol: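 Input and output libraries were sequenced on Illumina after a single in vitro selection round, run in triplicate on PCR-built, transcribed mutant libraries of each subunit of a heterodimeric triplet polymerase ribozyme. Selection annealed libraries to a biotinylated primer, the partner subunit and triplets, incubated them frozen at −7 °C, then gel-excised extended constructs for streptavidin-bead capture and RT-PCR. Genotypes with ≥10 input reads and ≥1 read per output were kept. Fitness is the logarithm, taken in base 2, of genotype enrichment divided by wild-type enrichment, using inverse-variance-weighted replicate averages.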
Turning to A6U G36C G44A G77U C123G, the “polymerase ribozyme fitness (log ratio)” value is -0.241.

Turning to A6G C99A C123U, the “polymerase ribozyme fitness (log ratio)” value was -5.05.

For the variant U7A C11A G117A, the “polymerase ribozyme fitness (log ratio)” value was -2.2.

With U7A A27U G61C G117U, the “polymerase ribozyme fitness (log ratio)” value is -5.69.

As for A6G C72U C97U, the “polymerase ribozyme fitness (log ratio)” value was -1.35.

For A6U A111C, the “polymerase ribozyme fitness (log ratio)” value was -0.0776.

Regarding U7A C12A A83C, the “polymerase ribozyme fitness (log ratio)” value was -0.0554.

A6U U92A: the “polymerase ribozyme fitness (log ratio)” value was -2.82.

On to A6U A91C, for which the “polymerase ribozyme fitness (log ratio)” value is -1.21.

On to A6G C79G C104A, for which the “polymerase ribozyme fitness (log ratio)” value was -4.14.

For A6G C22U G44C C88U, the “polymerase ribozyme fitness (log ratio)” value is -6.05.

A6U A91U A121C C124A: the “polymerase ribozyme fitness (log ratio)” value was -0.453.

For A6U C12A C124A, the “polymerase ribozyme fitness (log ratio)” value was 0.761.

Regarding U7A A16G U55G G61C C82U, the “polymerase ribozyme fitness (log ratio)” value was -1.41.

On to U7A A16C, for which the “polymerase ribozyme fitness (log ratio)” value was -0.994.

Regarding A6U C70U C88A U129C, the “polymerase ribozyme fitness (log ratio)” value was -1.84.

As for A6U G48U C53A C88G C102A, the “polymerase ribozyme fitness (log ratio)” value was -3.09.

With A6U G45U, the “polymerase ribozyme fitness (log ratio)” value is -1.59.

For A6U A66G C85G, the “polymerase ribozyme fitness (log ratio)” value was -2.09.

On to U7A C8G G45A, for which the “polymerase ribozyme fitness (log ratio)” value stood at 0.548.

Take A6U C76G C98U: the “polymerase ribozyme fitness (log ratio)” value was -1.31.

Take A6U U9A A26U: the “polymerase ribozyme fitness (log ratio)” value was -1.87.

Consider A6G C12A C56A C72A, for which the “polymerase ribozyme fitness (log ratio)” value is -1.87.

For A6U U9C G47A G63U, the “polymerase ribozyme fitness (log ratio)” value is -1.85.

Turning to A6U A50U A95C, the “polymerase ribozyme fitness (log ratio)” value was -1.57.

Take A6U C22G A41C G71U: the “polymerase ribozyme fitness (log ratio)” value was -3.47.

In the case of A6U C64U, the “polymerase ribozyme fitness (log ratio)” value was -0.037.

With A6G U7C A74C C80G U112G, the “polymerase ribozyme fitness (log ratio)” value is -6.27.

Regarding A6U A18U A74C C85G C115A U129G, the “polymerase ribozyme fitness (log ratio)” value was -4.74.

A6U U54G C70A: the “polymerase ribozyme fitness (log ratio)” value is -3.12.

Turning to A6U G48U U81C A121G, the “polymerase ribozyme fitness (log ratio)” value is 0.747.

Take A6U U131A: the “polymerase ribozyme fitness (log ratio)” value was 0.0258.

Consider A6U G48U G71C G117A, for which the “polymerase ribozyme fitness (log ratio)” value is -3.59.

Take U7A C8G G45A U112A: the “polymerase ribozyme fitness (log ratio)” value came to 1.66.

Consider A6G C8A A26G A84U C99A, for which the “polymerase ribozyme fitness (log ratio)” value is -5.28.

Regarding A6U U96C C101U G122A, the “polymerase ribozyme fitness (log ratio)” value was -0.932.

As for A6U C53U C73U, the “polymerase ribozyme fitness (log ratio)” value worked out at 0.296.

Take A6U C94G G120A: the “polymerase ribozyme fitness (log ratio)” value is 0.554.

Consider A6U C40U G57C G61U A100C G113A, for which the “polymerase ribozyme fitness (log ratio)” value is -3.51.

On to U7A C22U G39A G44U C53U C56G G63C C124A U125A, for which the “polymerase ribozyme fitness (log ratio)” value is -5.65.

In the case of A6U C20G C76U G113U, the “polymerase ribozyme fitness (log ratio)” value was -1.29.

For A6G C102A, the “polymerase ribozyme fitness (log ratio)” value is -1.96.

For A6U U7C C102U G127C U131G, the “polymerase ribozyme fitness (log ratio)” value was -2.65.

Turning to A6U A29U C101A G120C U133A, the “polymerase ribozyme fitness (log ratio)” value was -4.06.

Regarding A6U A37G C56U, the “polymerase ribozyme fitness (log ratio)” value amounted to 0.28.

For A6U C70U, the “polymerase ribozyme fitness (log ratio)” value is -0.544.

For the variant U7A C11U A27U A90C C98U, the “polymerase ribozyme fitness (log ratio)” value was -7.09.

For the variant A6U G48U C72A, the “polymerase ribozyme fitness (log ratio)” value was determined as 0.271.

For A6G C34U G60U C72U U116A C124A, the “polymerase ribozyme fitness (log ratio)” value was -4.04.

On to A6U C8G G44C C64U U96C, for which the “polymerase ribozyme fitness (log ratio)” value is -1.02.

For A6G U59C, the “polymerase ribozyme fitness (log ratio)” value was -0.609.

For the variant U7A A27U A50U A74C C101U, the “polymerase ribozyme fitness (log ratio)” value is -4.66.

Take A6G G47U C64U C99A G120A: the “polymerase ribozyme fitness (log ratio)” value was -5.98.

With U7A A26U C49U C94G C123G, the “polymerase ribozyme fitness (log ratio)” value was -4.09.

In the case of A6U C12G C89G A105C U106G, the “polymerase ribozyme fitness (log ratio)” value is -3.35.

On to A6G C8U C49G C70A U78C, for which the “polymerase ribozyme fitness (log ratio)” value is -3.15.

Regarding U7A C12U U59C, the “polymerase ribozyme fitness (log ratio)” value was 0.392.

For A6U C72A C85U A90G G107U U112A, the “polymerase ribozyme fitness (log ratio)” value is -4.8.

In the case of A6U G42C A74C C79G C123G U125A, the “polymerase ribozyme fitness (log ratio)” value is -2.83.

For the variant A6U U38G C73U U125A, the “polymerase ribozyme fitness (log ratio)” value is -1.49.

Regarding U7A A18U C22G C72A, the “polymerase ribozyme fitness (log ratio)” value was -4.55.

Take A6U C34G C123U: the “polymerase ribozyme fitness (log ratio)” value was -5.18.

For the variant A6G U78C C102A C124A U130A, the “polymerase ribozyme fitness (log ratio)” value is -1.35.

In the case of A6U C123U, the “polymerase ribozyme fitness (log ratio)” value worked out at 1.41.

As for A6G C49G C56G U81G C114U U132C, the “polymerase ribozyme fitness (log ratio)” value was -5.17.

On to A6U A105C, for which the “polymerase ribozyme fitness (log ratio)” value is -1.94.

Consider A6G G36A, for which the “polymerase ribozyme fitness (log ratio)” value was -0.889.

Regarding A6U C13G A74U C88U C97U G117C C124G U132A, the “polymerase ribozyme fitness (log ratio)” value was -3.99.

Consider A6U C97U, for which the “polymerase ribozyme fitness (log ratio)” value is -0.46.

In the case of A6U C97A, the “polymerase ribozyme fitness (log ratio)” value is -3.55.

As to A6U C15A U21G G58A A90G U112C G127A, the “polymerase ribozyme fitness (log ratio)” value is -4.37.

In the case of A6U C56U C72U, the “polymerase ribozyme fitness (log ratio)” value was 0.0866.

As for A6G U7C A50U C80G U112G, the “polymerase ribozyme fitness (log ratio)” value is -4.92.

For A6U C34U, the “polymerase ribozyme fitness (log ratio)” value was -4.08.

In the case of A6G U54A G93A, the “polymerase ribozyme fitness (log ratio)” value is -0.596.

Turning to A6G C76A C88G A121U G128A, the “polymerase ribozyme fitness (log ratio)” value was -1.67.

Turning to A6U C15G C40U G61C C79A, the “polymerase ribozyme fitness (log ratio)” value is -6.15.

As to A6U C85G, the “polymerase ribozyme fitness (log ratio)” value was -1.65.

On to A6G C15U C89U U96A, for which the “polymerase ribozyme fitness (log ratio)” value was -0.964.

Regarding A6U G61C U78G U130C, the “polymerase ribozyme fitness (log ratio)” value was -3.92.

For A6U G48A C123A, the “polymerase ribozyme fitness (log ratio)” value turned out to be 0.913.

For the variant A6G C56G A103U, the “polymerase ribozyme fitness (log ratio)” value is -4.63.

As to U7A A43U C70G, the “polymerase ribozyme fitness (log ratio)” value is -6.28.

On to A6U C70U U129C, for which the “polymerase ribozyme fitness (log ratio)” value was -1.04.
